Assay results reported in the supplement of paper PMC10567573.

B1: FAM46D (parent)
chain: LELKFVSSLRRQFEFSVDSFQIVL

Variants of: B1
Test: protein stability index of a GFP-peptide fusion (GPS, HEK-293T) (PSI 1-6); higher = more stable
Settings: c terminus: a fixed tail appended
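Note: lentivirally expressed fusions sorted by FACS into six bins by GFP to DsRed ratio, PSI derived from sequencing read proportions per bin multiplied by bin number.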

| Variant | protein stability index |
| --- | --- |
| LELKFASSLRRQFEFSVDSFQIVL | 2.77 |
| LELKFGSSLRRQFEFSVDSFQIVL | 2.81 |
| LELKFSSSLRRQFEFSVDSFQIVL | 2.49 |
| LELKFISSLRRQFEFSVDSFQIVL | 2.95 |
| LELKFESSLRRQFEFSVDSFQIVL | 2.75 |
| LELKFVSSLRRAFEFSVDSFQIVL | 4.78 |
| LELKFVSSLRRMFEFSVDSFQIVL | 3.09 |
| LELKFVSSLRRWFEFSVDSFQIVL | 3.97 |
| LELKFVSSLRREFEFSVDSFQIVL | 2.55 |
| LELKFVSLLRRQFEFSVDSFQIVL | 3.46 |
| LELKFVSKLRRQFEFSVDSFQIVL | 2.05 |
| LELKFVSVLRRQFEFSVDSFQIVL | 1.71 |
| LELKFVSPLRRQFEFSVDSFQIVL | 2.69 |
| LELKFVSTLRRQFEFSVDSFQIVL | 3 |
| LELKFVSALRRQFEFSVDSFQIVL | 2.57 |
| LELKFVSYLRRQFEFSVDSFQIVL | 2.44 |
| LELKFVSFLRRQFEFSVDSFQIVL | 1.95 |
| LELKFVSRLRRQFEFSVDSFQIVL | 2.15 |
| LELKFVSDLRRQFEFSVDSFQIVL | 2.97 |
| LELKFVSSLRRQFEFSVESFQIVL | 1.74 |
| LELKFVSSLRRQFEFSVWSFQIVL | 3.27 |
| LELKFVSSLRRQFEFSVRSFQIVL | 3.4 |
| LELKFVSSLRRQFEFSVCSFQIVL | 2 |
| LELKFVSSLRRQFEFSVLSFQIVL | 2.1 |

| Variant | protein stability index |
| --- | --- |
| LELKFVSSLRRQFEFSVMSFQIVL | 4.61 |
| LELKFVSSLRRQFEFSVQSFQIVL | 3.71 |
| LELKFVSSLRRQFEFSVKSFQIVL | 3.6 |
| LEFKFVSSLRRQFEFSVDSFQIVL | 2.43 |
| LENKFVSSLRRQFEFSVDSFQIVL | 2.3 |
| LEIKFVSSLRRQFEFSVDSFQIVL | 2.5 |
| LEKKFVSSLRRQFEFSVDSFQIVL | 3.37 |
| LETKFVSSLRRQFEFSVDSFQIVL | 3.15 |
| LEDKFVSSLRRQFEFSVDSFQIVL | 3.2 |
| LEPKFVSSLRRQFEFSVDSFQIVL | 1.62 |
| LEWKFVSSLRRQFEFSVDSFQIVL | 2.77 |
| LERKFVSSLRRQFEFSVDSFQIVL | 2.23 |
| LELKFVSSLNRQFEFSVDSFQIVL | 2.23 |
| LELKFVSSLMRQFEFSVDSFQIVL | 2.72 |
| LELKFVSSLTRQFEFSVDSFQIVL | 2.83 |
| LELKFVSSLWRQFEFSVDSFQIVL | 2.01 |
| FELKFVSSLRRQFEFSVDSFQIVL | 3.04 |
| HELKFVSSLRRQFEFSVDSFQIVL | 2.49 |
| SELKFVSSLRRQFEFSVDSFQIVL | 2.57 |
| MELKFVSSLRRQFEFSVDSFQIVL | 4.32 |
| DELKFVSSLRRQFEFSVDSFQIVL | 1.9 |
| PELKFVSSLRRQFEFSVDSFQIVL | 2.78 |
| YELKFVSSLRRQFEFSVDSFQIVL | 2.56 |
| AELKFVSSLRRQFEFSVDSFQIVL | 2.03 |

| Variant | protein stability index |
| --- | --- |
| EELKFVSSLRRQFEFSVDSFQIVL | 2.65 |
| IELKFVSSLRRQFEFSVDSFQIVL | 2.7 |
| WELKFVSSLRRQFEFSVDSFQIVL | 1.92 |
| LELKFVSSLRRQFEFSVDIFQIVL | 4.06 |
| LELKFVSSLRRQFEFSVDPFQIVL | 2.18 |
| LELKFVSSLRRQFEFSVDWFQIVL | 3.19 |
| LELKFVSSLRRQFEFSVDLFQIVL | 2.88 |
| LELKFVSSLRRQFEFSVDRFQIVL | 2.38 |
| LELKFVSSLRRQFEFSVDVFQIVL | 2.12 |
| LELKFVSSLRRQFEFSVDNFQIVL | 4 |
| LELKFVSSLRRQFEFSVDMFQIVL | 4.08 |
| LELKFVSSLRRQFEFSVDEFQIVL | 3.31 |
| LELKFVSSLRRQFEESVDSFQIVL | 3.22 |
| LELKFVSSLRRQFEKSVDSFQIVL | 2.13 |
| LELKFVSSLRRQFETSVDSFQIVL | 2.43 |
| LELKFVSSLRRQFENSVDSFQIVL | 4.46 |
| LELKFVSSLRRQFEWSVDSFQIVL | 3.57 |
| LELKFVSSLRRQFEDSVDSFQIVL | 2.09 |
| LELKFVSSLRRQFEISVDSFQIVL | 4.07 |
| LELKFVSSLRRQFECSVDSFQIVL | 2.42 |
| LELKFVSSLRMQFEFSVDSFQIVL | 2.27 |
| LELKFVSSLRHQFEFSVDSFQIVL | 2.97 |
| LELKFVSSLRYQFEFSVDSFQIVL | 3.14 |
| LELKFVSSLREQFEFSVDSFQIVL | 3.47 |

| Variant | protein stability index |
| --- | --- |
| LELKFVSSLRWQFEFSVDSFQIVL | 4.32 |
| LELKFVSSLRRQFEFSVDSFQGVL | 3.17 |
| LELKFVSSLRRQFEFSVDSFQCVL | 2.93 |
| LELKFVSSLRRQFEFSVDSFQPVL | 4.29 |
| LELKFVSSLRRQFEFSVDSFQVVL | 3.07 |
| LELKFVSSLRRQFEFSVDSFQMVL | 3.31 |
| LELKFVSSLRRQFEFSVDSFQTVL | 2.21 |
| LELKFVSSLRRQFEFSVDSFQKVL | 1.71 |
| LELKFVPSLRRQFEFSVDSFQIVL | 2.67 |
| LELKFVKSLRRQFEFSVDSFQIVL | 2.57 |
| LELKFVCSLRRQFEFSVDSFQIVL | 3.17 |
| LELKFVRSLRRQFEFSVDSFQIVL | 2.91 |
| LELKFVTSLRRQFEFSVDSFQIVL | 1.5 |
| LELKFVMSLRRQFEFSVDSFQIVL | 3.02 |
| LELKFVHSLRRQFEFSVDSFQIVL | 3.18 |
| LELKFVQSLRRQFEFSVDSFQIVL | 2.43 |
| LELKFVASLRRQFEFSVDSFQIVL | 3.21 |
| LELKRVSSLRRQFEFSVDSFQIVL | 2.39 |
| LELKQVSSLRRQFEFSVDSFQIVL | 2.59 |
| LELKAVSSLRRQFEFSVDSFQIVL | 3.94 |
| LELKIVSSLRRQFEFSVDSFQIVL | 3.77 |
| LELKTVSSLRRQFEFSVDSFQIVL | 2.8 |
| LELKDVSSLRRQFEFSVDSFQIVL | 2.09 |
| LELKSVSSLRRQFEFSVDSFQIVL | 3.1 |

| Variant | protein stability index |
| --- | --- |
| LELKLVSSLRRQFEFSVDSFQIVL | 1.96 |
| LELKMVSSLRRQFEFSVDSFQIVL | 4.22 |
| LSLKFVSSLRRQFEFSVDSFQIVL | 3 |
| LRLKFVSSLRRQFEFSVDSFQIVL | 3.42 |
| LFLKFVSSLRRQFEFSVDSFQIVL | 2.6 |
| LGLKFVSSLRRQFEFSVDSFQIVL | 2.65 |
| LHLKFVSSLRRQFEFSVDSFQIVL | 2.95 |
| LNLKFVSSLRRQFEFSVDSFQIVL | 2.6 |
| LILKFVSSLRRQFEFSVDSFQIVL | 1.99 |
| LYLKFVSSLRRQFEFSVDSFQIVL | 3.04 |
| LMLKFVSSLRRQFEFSVDSFQIVL | 2.57 |
| LELKFVSSLRRQFEFSVDSFKIVL | 3.44 |
| LELKFVSSLRRQFEFSVDSFFIVL | 2.74 |
| LELKFVSSLRRQFEFSVDSFNIVL | 2.75 |
| LELKFVSSLRRQFEFSVDSFAIVL | 2.85 |
| LELKFVSSLRRQFEFSVDSFEIVL | 2.47 |
| LELKFVSSLRRQFEFSVDSFMIVL | 2.78 |
| LELKFVSSLRRQFEFSVDSFVIVL | 2.67 |
| LELKFVSSLRRQFEFSVDSFDIVL | 2.69 |
| LELKFVSSLRRQFEFSVDSFCIVL | 3.58 |
| LELKFVSSLRRQFEFSVDSFTIVL | 2.68 |
| LELKFVSSLRRQFEFSLDSFQIVL | 3.25 |
| LELKFVSSLRRQFEFSMDSFQIVL | 4.44 |
| LELKFVSSLRRQFEFSWDSFQIVL | 4.01 |

| Variant | protein stability index |
| --- | --- |
| LELKFVSSLRRQFEFSIDSFQIVL | 2.8 |
| LELKFVSSLRRQFEFFVDSFQIVL | 2.79 |
| LELKFVSSLRRQFEFTVDSFQIVL | 4.1 |
| LELKFVSSLRRQFEFDVDSFQIVL | 3.15 |
| LELKFVSSLRRQFEFHVDSFQIVL | 2.69 |
| LELKFVSSLRRQFEFNVDSFQIVL | 3.05 |
| LELKFVSSLRRQFEFIVDSFQIVL | 2.93 |
| LELKFVSSLRRQFEFRVDSFQIVL | 3.43 |
| LELVFVSSLRRQFEFSVDSFQIVL | 4.21 |
| LELEFVSSLRRQFEFSVDSFQIVL | 2.38 |
| LELLFVSSLRRQFEFSVDSFQIVL | 3.25 |
| LELPFVSSLRRQFEFSVDSFQIVL | 3.77 |
| LELFFVSSLRRQFEFSVDSFQIVL | 3.11 |
| LELMFVSSLRRQFEFSVDSFQIVL | 4.16 |
| LELAFVSSLRRQFEFSVDSFQIVL | 2.28 |
| LELRFVSSLRRQFEFSVDSFQIVL | 3.25 |
| LELDFVSSLRRQFEFSVDSFQIVL | 3.48 |
| LELQFVSSLRRQFEFSVDSFQIVL | 3.84 |
| LELKFVSSLRRQFEFSVDSFQIVF | 3.74 |
| LELKFVSSLRRQFEFSVDSFQIVI | 3.26 |
| LELKFVSSLRRQFEFSVDSFQIVC | 3.35 |
| LELKFVSSLRRQFEFSVDSFQIVD | 1.78 |
| LELKFVSSLRRQFEFSVDSFQIVS | 3.63 |
| LELKFVSSLRRQFEFSVDSFQIVH | 4.63 |

| Variant | protein stability index |
| --- | --- |
| LELKFVSSLRRQFEFSVDSFQIVN | 2.39 |
| LELKFVSSLRRQFEFSVDSFQIVQ | 2.27 |
| LELKFVSSLRRQFEFSVDSFQIVW | 5.02 |
| LELKFVSSLRRQFEFSVDSFQIVY | 2.7 |
| LELKFVSSLRRQFEFSVDSFQIVP | 2.58 |
| LELKFVSSLRRQFEFSVDSFQIVM | 2.73 |
| LELKFVSSLRRQFEFSVDSFQIIL | 2.6 |
| LELKFVSSLRRQFEFSVDSFQIPL | 2.14 |
| LELKFVSSLRRQFEFSVDSFQITL | 2.62 |
| LELKFVSSLRRQFEFSVDSFQIAL | 3.08 |
| LELKFVSSLRRQFEFSVDSFQIYL | 3.37 |
| LELKFVSSLRRQFEFSVDSFQINL | 3.11 |
| LELKFVSSNRRQFEFSVDSFQIVL | 2.64 |
| LELKFVSSFRRQFEFSVDSFQIVL | 2.95 |
| LELKFVSSHRRQFEFSVDSFQIVL | 2.9 |
| LELKFVSSKRRQFEFSVDSFQIVL | 2.41 |
| LELKFVSSSRRQFEFSVDSFQIVL | 3.64 |
| LELKFVSSCRRQFEFSVDSFQIVL | 3.2 |
| LELKFVSSRRRQFEFSVDSFQIVL | 3.73 |
| LELKFVSSVRRQFEFSVDSFQIVL | 4.14 |
| LELKFVSSARRQFEFSVDSFQIVL | 2.93 |
| LELKFVSSTRRQFEFSVDSFQIVL | 2.99 |
| LELKFVSSWRRQFEFSVDSFQIVL | 3.47 |
| LELKFVSSLRRQIEFSVDSFQIVL | 3.87 |

| Variant | protein stability index |
| --- | --- |
| LELKFVSSLRRQSEFSVDSFQIVL | 2.67 |
| LELKFVSSLRRQVEFSVDSFQIVL | 3.73 |
| LELKFVSSLRRQNEFSVDSFQIVL | 2.82 |
| LELKFVSSLRRQKEFSVDSFQIVL | 2.91 |
| LELKFVSSLRRQDEFSVDSFQIVL | 2.54 |
| LELKFVSSLRRQCEFSVDSFQIVL | 4.36 |
| LELKFVSSLRRQFMFSVDSFQIVL | 2.77 |
| LELKFVSSLRRQFDFSVDSFQIVL | 4 |
| LELKFVSSLRRQFAFSVDSFQIVL | 3.98 |
| LELKFVSSLRRQFVFSVDSFQIVL | 2.06 |
| LELKFVSSLRRQFKFSVDSFQIVL | 3.16 |
| LELKFVSSLRRQFEFSVDSIQIVL | 3.44 |
| LELKFVSSLRRQFEFSVDSKQIVL | 3.31 |
| LELKFVSSLRRQFEFSVDSTQIVL | 1.62 |
| LELKFVSSLRRQFEFSVDSMQIVL | 2.58 |
| LELKFVSSLRRQFEFSVDSYQIVL | 3.11 |
| LELKFVSSLRRQFEFSVDSRQIVL | 2.22 |
| LELKFVSSLRRQFEFSVDSHQIVL | 2.62 |
| LELKFVSSLRRQFEFSVDSDQIVL | 2.94 |
| LELKFVSSLRRQFEFSVDSQQIVL | 1.61 |
